Measurements taken from patent US20250042994A1 (HAINAN SIMCERE ZAIMING PHARMACEUTICAL, published 2025).
Residue numbers refer to the chain shown, from its start. Blank lines part the entries; values can stand above or below the binder they belong to.

What was measured:
[1] = target: T1, human CD19 exon1-3-His tag protein (human, UniProt P15391 20-186, limits assumed); test: ELISA, coated human CD19 exon 1-3-His
T1 construct: membrane-distal part of the extracellular region, made in HEK293E cells; not shown: His tag
T1 sequence (looked up): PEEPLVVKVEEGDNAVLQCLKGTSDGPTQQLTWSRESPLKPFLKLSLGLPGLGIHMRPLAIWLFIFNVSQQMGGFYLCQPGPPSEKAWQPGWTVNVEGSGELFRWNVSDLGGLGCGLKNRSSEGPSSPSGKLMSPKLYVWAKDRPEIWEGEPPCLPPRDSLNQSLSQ

human CD19 on Raji cells = target: T2, human CD19 on Raji cells (human, UniProt P15391 20-556); test: FACS on Raji cells
T2 construct: whole, on cells
T2 sequence (looked up): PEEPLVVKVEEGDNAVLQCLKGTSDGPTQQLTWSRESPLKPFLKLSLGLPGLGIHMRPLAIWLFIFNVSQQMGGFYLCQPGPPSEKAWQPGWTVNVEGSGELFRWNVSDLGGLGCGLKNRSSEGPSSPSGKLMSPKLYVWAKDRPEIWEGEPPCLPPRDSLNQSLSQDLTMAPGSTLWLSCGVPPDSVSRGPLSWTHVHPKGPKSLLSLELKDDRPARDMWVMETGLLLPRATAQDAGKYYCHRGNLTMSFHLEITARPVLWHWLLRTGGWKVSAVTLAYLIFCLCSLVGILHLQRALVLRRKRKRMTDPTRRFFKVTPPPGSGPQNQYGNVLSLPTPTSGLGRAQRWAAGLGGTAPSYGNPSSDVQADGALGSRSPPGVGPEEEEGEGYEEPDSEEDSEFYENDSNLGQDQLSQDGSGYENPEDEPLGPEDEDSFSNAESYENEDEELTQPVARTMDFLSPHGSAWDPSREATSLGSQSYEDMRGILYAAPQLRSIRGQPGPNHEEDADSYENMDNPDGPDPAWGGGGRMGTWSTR
Experimental: (§1) After the digestion was terminated, the cells were washed 2 times with a PBS buffer; and for suspension cell Raji, the supernatant of the medium was discarded by directly centrifugation, and the cell pellet was washed 2 times with PBS. After counting the cells in the previous step, the cell pellet was resuspended with [PBS+2% (w/w) BSA] blocking solution to 2×10⁶ cells/ml, and added to a 96-well FACS reaction plate at 50 μl/well, and then the sample to be tested was added at 50 μl/well, and incubated on ice for 2 h. The obtained mixture was centrifuged and washed 3 times with a PBS buffer. […] The obtained mixture was centrifuged and washed 5 times with a PBS buffer, and FACS (FACS Canto™, purchased from BD Company) was used for detection and result analysis. Data analysis was performed by software (FlowJo) to obtain the mean fluorescence intensity (MFI) of the cells. And then software (GraphPad Prism8) was used for analysis, data fitting, and EC50 value calculation. […] The same method was used to detect the binding of the chimeric antibodies to endogenous CD19-negative cells, MoLT4 cells (purchased from ATCC, CRL-1582), and CHO-K1 cells.

Human CD19-his protein [2] = target: T3, Human CD19-his protein (human, UniProt P15391 20-291); test: ELISA, coated human CD19-His
T3 construct: bought protein; also called recombinant human CD19-His; CD19 full-length protein; not shown: His tag
T3 sequence (looked up): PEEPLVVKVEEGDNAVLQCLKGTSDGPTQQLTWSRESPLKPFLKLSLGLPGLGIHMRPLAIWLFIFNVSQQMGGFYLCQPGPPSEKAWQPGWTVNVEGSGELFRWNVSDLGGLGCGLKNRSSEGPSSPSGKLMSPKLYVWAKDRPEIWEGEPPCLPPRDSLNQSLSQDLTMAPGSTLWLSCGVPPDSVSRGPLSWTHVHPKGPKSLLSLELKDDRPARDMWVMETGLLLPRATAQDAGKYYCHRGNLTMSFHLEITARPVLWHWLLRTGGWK
Experimental: Human CD19-his protein (purchased from ACROBiosystems, catalog number: CD9-H52H2) was diluted with PBS to a final concentration of 4 μg/mL, and then added to a 96-well ELISA plate at 100 μl/well. The plate was sealed with a plastic film and incubated overnight at 4° C., the plate was washed 2 times with PBS the next day, and then a blocking solution [PBS+2% (w/w) BSA] was added for blocking at room temperature for 2 h. The blocking solution was poured off, and 100 nM gradiently diluted CD19 chimeric antibody or control antibody was added at 50 μl/well. After incubation at 37° C. for 2 h, the plate was washed 3 times with PBS. […] TMB substrate was added at 50 μl/well, and incubated at room temperature for 10 min, and then a stop solution (1.0 N HCl) was added at 50 μl/well. The OD450 nm values were read by an ELISA microplate reader (Multimode Plate Reader, EnSight, purchased from Perkin Elmer).

Human CD19-his protein [3] = target: T3, Human CD19-his protein; test: ELISA on coated human CD19-His
[4] = target: T4, human CD19 on CHO-K1-human CD19 cells (human, UniProt P15391 20-556); test: FACS on CHO-K1-human CD19 cells
T4 construct: whole, on cells; also called CHO-K1-human CD19-2C8
T4 sequence (looked up): T2 sequence (looked up)
Experimental: as §1

Human CD19-his protein [5] = target: T3, Human CD19-his protein; test: SPR Biacore, method of example 7.1, human CD19-His
Experimental: A sample buffer and a running buffer were HBS-EP+ (10 mM HEPES, 150 mM NaCl, 3 mM EDTA and 0.05% surfactant P20) (GE Healthcare; BR-1006-69). The flow-through cell was set to 25° C. The sample block was set to 16° C. Both were pretreated with the running buffer. In each cycle, an antibody to be detected was first captured with a Protein A chip, and then a single concentration of CD19 antigen protein was injected. The binding and dissociation processes of the antibody and the antigen protein were recorded, and finally Glycine pH 1.5 (GE Healthcare; BR-1003-54) was used to complete chip regeneration. The binding was measured by injecting different concentrations of recombinant human CD19-His proteins in a solution for 240 s with a flow rate of 30 μl/min. The concentration started from 200 nM (see the detailed results for the actual concentration in the test) and was diluted at 1:1, making a total of 5 concentrations. The dissociation phase was monitored for up to 600 s and was triggered by switching from sample solution to running buffer. The surface was regenerated by washing with a 10 mM glycine solution (pH 1.5) for 30 s at a flow rate of 30 μl/min. Bulk refractive index difference was corrected by subtracting the response obtained from the goat anti-human Fc surface. Blank injection was also subtracted (=double reference). For calculation of apparent KD and other kinetic parameters, Langmuir 1:1 model was used.
SPR (biacore) detection and data analysis were performed according to the method in example 7.1.

OD450 at 0.0001 nM [1]: 0.05 OD450
OD450 at 0.001 nM [1]: 0.05 OD450
OD450 at 0.01 nM [1]: 0.05 OD450
OD450 at 0.10 nM [1]: 0.05 OD450
OD450 at 1.00 nM [1]: 0.05 OD450
OD450 at 10 nM [1]: 0.05 OD450
OD450 at 100 nM [1]: 0.09 OD450
EC50 (human CD19 on Raji cells): 0.46 nM
Maximum mean fluorescence intensity (human CD19 on Raji cells): 32000 MFI
OD450 at 0.0001 nM (Human CD19-his protein [2]): 0.1 OD450
OD450 at 0.001 nM (Human CD19-his protein [2]): 0.14 OD450
OD450 at 0.01 nM (Human CD19-his protein [2]): 0.42 OD450
OD450 at 0.10 nM (Human CD19-his protein [2]): 1.61 OD450
OD450 at 1.00 nM (Human CD19-his protein [2]): 2.55 OD450
OD450 at 10 nM (Human CD19-his protein [2]): 2.49 OD450
OD450 at 100 nM (Human CD19-his protein [2]): 3.09 OD450
EC50 (read off the curve) (Human CD19-his protein [3]): ~0.05 nM
EC50 [4]: 1.1 nM
Maximum mean fluorescence intensity [4]: 54400 MFI
Kd (Human CD19-his protein [5]): 0.00502 nM
koff (Human CD19-his protein [5]): 6.17e-07 s⁻¹
kon (Human CD19-his protein [5]): 123000 M⁻¹ s⁻¹
B1: F3.121.4-L1H3 (antibody, mouse IgG1, kappa)
heavy: EVQLVQSGAEVKKPGASVKVSCKASGYTFTNYWMHWVRQRPGQGLEWMGEIDPSDNYANYNQEFQGRVTITVDKSASTAYMELSSLRSEDTAVYYCARHDGYFGALDYWGQGTTVTVSSAKTTPPSVYPLAPGSAAQTNSMVTLGCLVKGYFPEPVTVTWNSGSLSSGVHTFPAVLQSDLYTLSSSVTVPSSTWPSETVTCNVAHPASSTKVDKKIVPRDCGCKPCICTVPEVSSVFIFPPKPKDVLTITLTPKVTCVVVDISKDDPEVQFSWFVDDVEVHTAQTQPREEQFNSTFRSVSELPIMHQDWLNGKEFKCRVNSAAFPAPIEKTISKTKGRPKAPQVYTIPPPKEQMAKDKVSLTCMITDFFPEDITVEWQWNGQPAENYKNTQPIMDTDGSYFVYSKLNVQKSNWEAGNTFTCSVLHEGLHNHHTEKSLSHSPGK
light: EIVLTQSPATLSLSPGERATLSCSASSSISSNYLHWYQQKPGQAPRFLIYRTSNLASGIPARFSGSGSGTDFTLTISSLEPEDFAVYYCQQASSIPRMFTFGQGTKLEIKRADAAPTVSIFPPSSEQLTSGGASVVCFLNNFYPKDINVKWKIDGSERQNGVLNSWTDQDSKDSTYSMSSTLTLTKDEYERHNSYTCEATHKTSTSPIVKSFNRNEC
notes: humanized antibody of F3.121.4, VL1+VH3, murine IgG1 constant regions

OD450 at 0.0001 nM [1]: 0.05 OD450
OD450 at 0.001 nM [1]: 0.05 OD450
OD450 at 0.01 nM [1]: 0.05 OD450
OD450 at 0.10 nM [1]: 0.05 OD450
OD450 at 1.00 nM [1]: 0.05 OD450
OD450 at 10 nM [1]: 0.05 OD450
OD450 at 100 nM [1]: 0.08 OD450
EC50 (human CD19 on Raji cells): 0.44 nM
Maximum mean fluorescence intensity (human CD19 on Raji cells): 31600 MFI
OD450 at 0.0001 nM (Human CD19-his protein [2]): 0.1 OD450
OD450 at 0.001 nM (Human CD19-his protein [2]): 0.13 OD450
OD450 at 0.01 nM (Human CD19-his protein [2]): 0.39 OD450
OD450 at 0.10 nM (Human CD19-his protein [2]): 1.56 OD450
OD450 at 1.00 nM (Human CD19-his protein [2]): 2.51 OD450
OD450 at 10 nM (Human CD19-his protein [2]): 2.55 OD450
OD450 at 100 nM (Human CD19-his protein [2]): 2.67 OD450
EC50 (read off the curve) (Human CD19-his protein [3]): ~0.05 nM
EC50 [4]: 1.19 nM
Maximum mean fluorescence intensity [4]: 54700 MFI
Kd (Human CD19-his protein [5]): 0.000205 nM
koff (Human CD19-his protein [5]): 1.86e-08 s⁻¹
kon (Human CD19-his protein [5]): 91100 M⁻¹ s⁻¹
B2: F3.121.4-L1H4 (antibody, mouse IgG1, kappa)
heavy: B1 heavy with V5Q
light: B1 light
notes: humanized antibody of F3.121.4, VL1+VH4, murine IgG1 constant regions

OD450 at 0.0001 nM [1]: 0.07 OD450
OD450 at 0.001 nM [1]: 0.06 OD450
OD450 at 0.01 nM [1]: 0.06 OD450
OD450 at 0.10 nM [1]: 0.07 OD450
OD450 at 1.00 nM [1]: 0.08 OD450
OD450 at 10 nM [1]: 0.08 OD450
OD450 at 100 nM [1]: 0.11 OD450
EC50 (human CD19 on Raji cells): 0.43 nM
Maximum mean fluorescence intensity (human CD19 on Raji cells): 30500 MFI
OD450 at 0.0001 nM (Human CD19-his protein [2]): 0.12 OD450
OD450 at 0.001 nM (Human CD19-his protein [2]): 0.16 OD450
OD450 at 0.01 nM (Human CD19-his protein [2]): 0.44 OD450
OD450 at 0.10 nM (Human CD19-his protein [2]): 1.79 OD450
OD450 at 1.00 nM (Human CD19-his protein [2]): 2.73 OD450
OD450 at 10 nM (Human CD19-his protein [2]): 2.64 OD450
OD450 at 100 nM (Human CD19-his protein [2]): 2.84 OD450
EC50 (read off the curve) (Human CD19-his protein [3]): ~0.05 nM
EC50 [4]: 1.18 nM
Maximum mean fluorescence intensity [4]: 51600 MFI
Kd (Human CD19-his protein [5]): 0.0284 nM
koff (Human CD19-his protein [5]): 3.45e-06 s⁻¹
kon (Human CD19-his protein [5]): 121000 M⁻¹ s⁻¹
B3: F3.121.4-L1H1 (antibody, mouse IgG1, kappa, V domains shown)
VH: EVQLVQSGAEVKKPGASVKVSCKASGYTFTNYWMHWVRQAPGQRLEWMGEIDPSDNYANYNQEFQGRVTITVDKSASTAYMELSSLRSEDTAVYYCARHDGYFGALDYWGQGTTVTVSS
VL: EIVLTQSPATLSLSPGERATLSCSASSSISSNYLHWYQQKPGQAPRFLIYRTSNLASGIPARFSGSGSGTDFTLTISSLEPEDFAVYYCQQASSIPRMFTFGQGTKLEIKR
notes: humanized antibody of F3.121.4, VL1+VH1, murine IgG1 constant regions
